Each block holds one binder with its values, some of them ahead of it.
How the values were obtained:
[1] = target: T1, human transferrin receptor 1 on HEK293F-hTfR1 cells (human, UniProt P02786 1-760); assay: flow cytometry on HEK293F-hTfR1 cells with or without transferrin
T1 construct: whole, on cells
Experimental: (§1) HEK293F-hTfR1 cells were prepared by transfecting hTfR1-expressing plasmid, with a GFP tag, into HEK293F cells. Stable pool was used for this assay. Briefly, the engineered HEK293F cells expressing hTfR1 were cultured with OPM-293 CD05 medium at 37° C., with 8% CO₂ and saturated humidity in cell shaker. […] The cells were washed twice by centrifugation at 300 g for 5 min at 4° C., before rabbit anti-OVA antibodies and a secondary anti-rabbit IgG-AF647 (all prepared in blocking buffer). The cells were scanned with CytoFLEX (Beckman).

[2] = target: T2, human transferrin (Sigma T3309) (human, UniProt P02787 20-698); assay: flow cytometry on HEK293F-hTfR1 cells with human transferrin, pH 7.4; grade by % binding (+++ ≥ 15%)
T2 construct: mature; same polypeptide; also called native human transferrin; hTf
Experimental: as §1

[3] = target: T2, human transferrin (Sigma T3309); assay: flow cytometry on HEK293F-hTfR1 cells with human transferrin, pH 6.0; grade by % binding (+++ ≥ 15%)
Experimental: as §1

[4] = target: T3, human VEGFA121 (human, UniProt P15692-9 27-147, biotinylated); assay: target-binding ELISA on hVEGFA121, humanized VHH-Fc
T3 construct: Biotinylated; also called hVEGFA121; hVEGFA121-biotin
T3 sequence (looked up): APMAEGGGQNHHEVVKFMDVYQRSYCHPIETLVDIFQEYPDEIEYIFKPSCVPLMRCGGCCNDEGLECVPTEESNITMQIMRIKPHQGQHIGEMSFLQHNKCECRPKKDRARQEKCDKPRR
Experimental: For binding ELISA, immunoplates were coated with 100 μl/well 1 μg/ml streptavidin and incubate at 4° C. overnight. Wells were washed with PBST for 3 times and blocked with 200 μl of 1% BSA/PBS at RT for 1 hr. Washed with PBST for 3 times and add hVEGFA121-biotin or mVEGFA120-biotin (0.1 μg/ml) 100 al/well and incubated at RT for 1 hr. Plates were washed with PBST for 3 times, 100 al/well 5-fold serially diluted VHH-Fcs from 2 μg/ml was added. and incubate at RT for 1 hr. Plates were washed with PBST for 3 times and add 100 al goat anti-human Fc-HRP (Sigma, A0170) diluted 1/5000 in 1% BSA/PBST to each well and incubate at RT for 1 hr. Plates were then washed as before and add 100 al TMB substrate and incubate at RT for 15 min. 100 al per well stop solution was added to stop the reaction, and the plates were read with microplate reader at 450 nm.
Four VHHs (C2, C8, F6, D2) were selected for humanization. Proceed with plasmid construction and protein production as above, the humanized VHH-Fc was characterized with target-binding (ELISA) and RBA.

[5] = target: T2, human transferrin (Sigma T3309); assay: flow cytometry on HEK293F-hTfR1 cells with human transferrin, pH 7.4; grade by % binding (10% > + ≥ 5%)
Experimental: as §1

T1 sequence (P02786 whole entry): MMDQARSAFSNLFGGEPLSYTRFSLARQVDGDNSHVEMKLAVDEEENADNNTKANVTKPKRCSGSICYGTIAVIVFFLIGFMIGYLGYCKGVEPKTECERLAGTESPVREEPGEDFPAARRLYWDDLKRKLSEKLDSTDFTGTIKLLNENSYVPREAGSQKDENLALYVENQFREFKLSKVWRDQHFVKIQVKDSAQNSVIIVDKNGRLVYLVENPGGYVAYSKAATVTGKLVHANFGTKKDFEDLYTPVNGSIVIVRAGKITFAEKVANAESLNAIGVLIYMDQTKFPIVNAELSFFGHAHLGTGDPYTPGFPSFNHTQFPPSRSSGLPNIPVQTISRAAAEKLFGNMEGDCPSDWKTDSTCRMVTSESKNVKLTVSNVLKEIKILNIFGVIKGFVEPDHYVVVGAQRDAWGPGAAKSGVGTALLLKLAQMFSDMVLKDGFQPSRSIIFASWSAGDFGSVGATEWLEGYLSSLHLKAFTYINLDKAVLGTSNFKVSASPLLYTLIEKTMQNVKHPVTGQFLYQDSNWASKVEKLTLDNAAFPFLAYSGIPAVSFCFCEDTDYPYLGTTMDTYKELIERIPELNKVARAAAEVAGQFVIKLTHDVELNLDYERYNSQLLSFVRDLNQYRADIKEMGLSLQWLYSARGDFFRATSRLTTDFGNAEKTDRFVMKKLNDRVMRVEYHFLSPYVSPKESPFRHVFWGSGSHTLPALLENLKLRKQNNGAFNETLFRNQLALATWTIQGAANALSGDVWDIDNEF
T2 sequence (P02787 20-698): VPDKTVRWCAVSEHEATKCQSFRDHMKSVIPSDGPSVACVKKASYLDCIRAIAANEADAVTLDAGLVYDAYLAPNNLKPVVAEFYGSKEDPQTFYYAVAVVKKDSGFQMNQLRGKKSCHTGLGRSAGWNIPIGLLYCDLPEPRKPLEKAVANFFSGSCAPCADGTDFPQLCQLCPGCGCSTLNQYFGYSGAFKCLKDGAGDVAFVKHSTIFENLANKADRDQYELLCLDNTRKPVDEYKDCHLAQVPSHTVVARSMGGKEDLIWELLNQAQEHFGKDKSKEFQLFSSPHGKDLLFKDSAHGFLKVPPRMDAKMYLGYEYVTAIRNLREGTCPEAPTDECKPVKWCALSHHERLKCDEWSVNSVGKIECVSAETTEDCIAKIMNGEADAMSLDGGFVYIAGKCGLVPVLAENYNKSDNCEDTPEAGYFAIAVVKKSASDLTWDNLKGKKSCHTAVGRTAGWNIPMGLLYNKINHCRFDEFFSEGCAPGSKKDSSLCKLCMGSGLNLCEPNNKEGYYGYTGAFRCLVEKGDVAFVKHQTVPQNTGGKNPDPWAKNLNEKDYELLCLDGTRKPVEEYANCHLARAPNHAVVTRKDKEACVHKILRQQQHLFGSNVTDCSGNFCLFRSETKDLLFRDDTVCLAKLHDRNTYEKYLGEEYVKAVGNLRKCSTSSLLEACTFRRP

binding result [1]: no binding (tested: 10 µg/mL)
percent binding (flow cytometry, VHH/Tf on hTfR1-overexpressing cells, pH 7.4) [2]: ≥ 15%
percent binding (flow cytometry, VHH/Tf on hTfR1-overexpressing cells, pH 6.0) [3]: ≥ 15%
B1: SLN0056 VHH-OVA-His (VHH)
chain: EVQLVESGGGSVQAGGSLRLSCRASGHAYGGNYMGWFRQAPGKEREGVAVLYTGGGSTYYADSVKGRFTISEDNAKNTVYLQMDSLKLEDTAMYYCALALGSARWYTSSLDARAYNIWGQGTQVTVSSGSIGAASMEFCFDVFKELKVHHANENIFYCPIAIMSALAMVYLGAKDSTRTQINKVVRFDKLPGFGDSIEAQCGTSVNVHSSLRDILNQITKPNDVYSFSLASRLYAEERYPILPEYLQCVKELYRGGLEPINFQTAADQARELINSWVESQTNGIIRNVLQPSSVDSQTAMVLVNAIVFKGLWEKAFKDEDTQAMPFRVTEQESKPVQMMYQIGLFRVASMASEKMKILELPFASGTMSMLVLLPDEVSGLEQLESIINFEKLTEWTSSNVMEERKIKVYLPRMKMEEKYNLTSVLMAMGITDVFSSSANLSGISSAESLKISQAVHAAHAEINEAGREVVGSAEAGVDAASVSEEFRADHPFLFCIKHIATNAVLFFGRCVSP
notes: Tested as recombinant VHH-OVA-His; not shown: His tag

binding result [1]: no binding (tested: 10 µg/mL)
percent binding (flow cytometry, VHH/Tf on hTfR1-overexpressing cells, pH 7.4) [2]: ≥ 15%
percent binding (flow cytometry, VHH/Tf on hTfR1-overexpressing cells, pH 6.0) [3]: ≥ 15%
B2: SLN0049 VHH-OVA-His (VHH)
chain: EVQLVESGGGSVQAGGSLRLSCAASRATNSRYSMGWFRQAPGKEREGVAAIDSIGRTSYADSVKGRFTISQDGAKNTLYLQMNSLKPEDTAMYYCAATAWRDWATLREYEYGYWGQGTQVTVSSGSIGAASMEFCFDVFKELKVHHANENIFYCPIAIMSALAMVYLGAKDSTRTQINKVVRFDKLPGFGDSIEAQCGTSVNVHSSLRDILNQITKPNDVYSFSLASRLYAEERYPILPEYLQCVKELYRGGLEPINFQTAADQARELINSWVESQTNGIIRNVLQPSSVDSQTAMVLVNAIVFKGLWEKAFKDEDTQAMPFRVTEQESKPVQMMYQIGLFRVASMASEKMKILELPFASGTMSMLVLLPDEVSGLEQLESIINFEKLTEWTSSNVMEERKIKVYLPRMKMEEKYNLTSVLMAMGITDVFSSSANLSGISSAESLKISQAVHAAHAEINEAGREVVGSAEAGVDAASVSEEFRADHPFLFCIKHIATNAVLFFGRCVSP
notes: as for B1

binding result [1]: no binding (tested: 10 µg/mL)
percent binding (flow cytometry, VHH/Tf on hTfR1-overexpressing cells, pH 6.0) [3]: ≥ 15%
B3: SLN0044 VHH-OVA-His (VHH)
chain: DVQLVESGGGSVQAGGSLRLSCAASIYTYSTACMAWFRQAPGKEREGVAAIARYGDTTYTDSVKGRFTISRDVAKNILYLQMSSLKPEDTAMYYCASKSPNSGCDEYAHYETFGQGTQVTVSSGSIGAASMEFCFDVFKELKVHHANENIFYCPIAIMSALAMVYLGAKDSTRTQINKVVRFDKLPGFGDSIEAQCGTSVNVHSSLRDILNQITKPNDVYSFSLASRLYAEERYPILPEYLQCVKELYRGGLEPINFQTAADQARELINSWVESQTNGIIRNVLQPSSVDSQTAMVLVNAIVFKGLWEKAFKDEDTQAMPFRVTEQESKPVQMMYQIGLFRVASMASEKMKILELPFASGTMSMLVLLPDEVSGLEQLESIINFEKLTEWTSSNVMEERKIKVYLPRMKMEEKYNLTSVLMAMGITDVFSSSANLSGISSAESLKISQAVHAAHAEINEAGREVVGSAEAGVDAASVSEEFRADHPFLFCIKHIATNAVLFFGRCVSP
notes: as for B1

binding result [4]: binds
B4: SLN-6068 humanized VHH-Fc (Fc fusion)
chain: EVQLVESGGGLVQPGGSLRLSCAASVYTSSTYYMAWFRQAPGKGREGVAAAYAGGGGTVYADSVKGRFTISQDNSKNTLYLQMNSLRAEDTAVYYCAARMSRLLGMAPLLPEHYDSWGQGTLVTVSS
notes: tested as VHH-Fc; also called C2-11; not shown: human IgG4 Fc (VHH-hIgG4 Fc fusion)

binding result [4]: binds
B5: SLN-6043 humanized VHH-Fc (Fc fusion)
chain: EVQLVESGGGVVQPGGSLRLSCAASGFTSDNCAVHWVRQAPGKGLEWVSSISSDDSTRYADSVKGRFTISRDNSKNSLYLQMNSLRTEDTALYYCQTKWPCTYRRGGSAYRPAVVWGQGTLVTVSS
notes: tested as VHH-Fc; also called F6-1; not shown: human IgG4 Fc (VHH-hIgG4 Fc fusion)

binding result [1]: no binding (tested: 10 µg/mL)
percent binding (flow cytometry, VHH/Tf on hTfR1-overexpressing cells, pH 7.4) [2]: ≥ 15%
percent binding (flow cytometry, VHH/Tf on hTfR1-overexpressing cells, pH 6.0) [3]: ≥ 15%
B6: SLN0072 VHH-OVA-His (VHH)
chain: EVQLVESGGGSVQAGGSLRLSCVASGYTGSSSYMGWFRQVPGKEREGVAQINSRSGSTYYADSVKGRFTISQDNAKNTVYLQMTSLKPEDTGMYYCAERFGPTFYPVPLGSNLYNYWGQGTQVTVSSGSIGAASMEFCFDVFKELKVHHANENIFYCPIAIMSALAMVYLGAKDSTRTQINKVVRFDKLPGFGDSIEAQCGTSVNVHSSLRDILNQITKPNDVYSFSLASRLYAEERYPILPEYLQCVKELYRGGLEPINFQTAADQARELINSWVESQTNGIIRNVLQPSSVDSQTAMVLVNAIVFKGLWEKAFKDEDTQAMPFRVTEQESKPVQMMYQIGLFRVASMASEKMKILELPFASGTMSMLVLLPDEVSGLEQLESIINFEKLTEWTSSNVMEERKIKVYLPRMKMEEKYNLTSVLMAMGITDVFSSSANLSGISSAESLKISQAVHAAHAEINEAGREVVGSAEAGVDAASVSEEFRADHPFLFCIKHIATNAVLFFGRCVSP
notes: as for B1

binding result [1]: no binding (tested: 10 µg/mL)
percent binding (flow cytometry, VHH/Tf on hTfR1-overexpressing cells, pH 7.4) [5]: 5 to 10%
B7: SLN0071 VHH-OVA-His (VHH)
chain: EVQLVESGGGSVQAGGSLRLSCAGSEYTYSRCCMGWFRQAPGKEREGVVSINVLGGTSYADSVKGRFTISRDNAENTLYLQMNSLKPEDTAMYYCAAGLASAPWRPCGTTTEEYKYWGQGTQVTVSSGSIGAASMEFCFDVFKELKVHHANENIFYCPIAIMSALAMVYLGAKDSTRTQINKVVRFDKLPGFGDSIEAQCGTSVNVHSSLRDILNQITKPNDVYSFSLASRLYAEERYPILPEYLQCVKELYRGGLEPINFQTAADQARELINSWVESQTNGIIRNVLQPSSVDSQTAMVLVNAIVFKGLWEKAFKDEDTQAMPFRVTEQESKPVQMMYQIGLFRVASMASEKMKILELPFASGTMSMLVLLPDEVSGLEQLESIINFEKLTEWTSSNVMEERKIKVYLPRMKMEEKYNLTSVLMAMGITDVFSSSANLSGISSAESLKISQAVHAAHAEINEAGREVVGSAEAGVDAASVSEEFRADHPFLFCIKHIATNAVLFFGRCVSP
notes: as for B1

binding result [4]: binds
B8: SLN6065 humanized VHH-Fc (Fc fusion)
chain: EVQLVESGGGLVQPGGSLRLSCAASRDAYFNNYMAWFRQAPGKGLEGVSSIATNTGNDYYADSVKGRFTISRDNSKNTIYLQMNSLRAEDTAVYYCAAGWRGGSFWTPSKYSYWGQGTLVTVSS
notes: tested as VHH-Fc; also called D2-9; not shown: human IgG4 Fc (VHH-hIgG4 Fc fusion)

binding result [4]: binds
B9: SLN6062 humanized VHH-Fc (Fc fusion)
chain: EVQLVESGGGLVQPGGSLRLSCAASVYTASCMGWFRQAPGKGLELVSTLNRNSGRTSYVGSVKGRFTISQDNSKKTLYLQMNSLRAEDTAVYYCAATWSWYSFTCPGDQNAYIHWGQGTLVTVSS
notes: tested as VHH-Fc; also called C8-9; not shown: human IgG4 Fc (VHH-hIgG4 Fc fusion)

binding result [1]: no binding (tested: 10 µg/mL)
percent binding (flow cytometry, VHH/Tf on hTfR1-overexpressing cells, pH 7.4) [5]: 5 to 10%
B10: SLN0065 VHH-OVA-His (VHH)
chain: EVQLVESGGGSVQAGGSLRLSCLYTDSLFWMGWFRQTPGNEREGVAVTGRDGSTIYADSVQGRFTISRDNAKNTLYLQMNSLKPDDTAMYYCAADQTRYSSLRLLAPNRSASWGQGTQVTVSSGSIGAASMEFCFDVFKELKVHHANENIFYCPIAIMSALAMVYLGAKDSTRTQINKVVRFDKLPGFGDSIEAQCGTSVNVHSSLRDILNQITKPNDVYSFSLASRLYAEERYPILPEYLQCVKELYRGGLEPINFQTAADQARELINSWVESQTNGIIRNVLQPSSVDSQTAMVLVNAIVFKGLWEKAFKDEDTQAMPFRVTEQESKPVQMMYQIGLFRVASMASEKMKILELPFASGTMSMLVLLPDEVSGLEQLESIINFEKLTEWTSSNVMEERKIKVYLPRMKMEEKYNLTSVLMAMGITDVFSSSANLSGISSAESLKISQAVHAAHAEINEAGREVVGSAEAGVDAASVSEEFRADHPFLFCIKHIATNAVLFFGRCVSP
notes: as for B1

Source: US20250034239A1 (LINNO PHARMACEUTICALS, published 2025)
